According to PMC10776578, “Epstein-Barr virus-driven B cell lymphoma mediated by a direct LMP1-TRAF6 complex” (Nature Communications, 2024):
Entries after “also recorded” stand apart in the source; their conditions may differ.

How the values were obtained:
GST-RANK314-355 = test: AlphaScreen PPI, TRAF6 mutants binding to RANK; set-up: species or system human; details: for effect of TRAF6 mutation on binding to RANK (in words): AlphaScreen PPI; for TRAF6 binding to RANK (AlphaScreen), mean / TRAF6 binding to RANK (AlphaScreen): Figure 2c; for TRAF6 binding to RANK (AlphaScreen), mean: mean of n = 4
Method: Fig. 2 LMP1 binds to the receptor-interacting surface of TRAF6. a Mutations within the receptor-interacting surface of TRAF6 affect binding to LMP1. The TRAF6 mutants R392A, K469A, F471A, and Y473A were tested LMP1 in AlphaScreen PPI experiments with GST-LMP1_181-386. Data are mean values ± SD of three independent experiments. Statistics: one-way ANOVA. b TRAF6 R392A differentiates between CD40 and LMP1/RANK. AlphaScreen PPI experiments with GST-CD40_216-277. Data are mean values ± SD of three independent experiments. […] AlphaScreen PPI experiments with GST-RANK314-355. Data are mean values ± SD of four independent experiments. Statistics: one-way ANOVA. d TRAF6 mutants that fail to interact with LMP1 in PPI assays are also unable to bind cellular LMP1. HEK293 cells were co-transfected with HA-LMP1 and the indicated Flag-TRAF6 mutants. Flag-TRAF6 was immunoprecipitated (IP) via its Flag-tag and coprecipitated HA-LMP1 was detected on immunoblots by an α-HA antibody. Uncropped blots in Supplementary Fig. 6b. For statistical analysis LMP1 signals were digitalized and quantified (graph). Data are mean values ± SD of three independent experiments. […] TRAF6 recruitment is dependent on amino acids 371 − 386 of LMP1 (small panel). Confocal microscopy images show representative cells of three independent experiments. Quantitative data are mean values ± SD of ten randomly selected cells per transfection of one representative experiment (graph). Scale bars: 10 µm. Statistics: one-way ANOVA. p-values: *p ≤ 0.05, **p ≤ 0.01, ***p ≤ 0.001, ****p ≤ 0.0001. Source data and exact p-values in the Source Data file.
(§1) AlphaScreen experiments were performed in 96- or 384-well plates (Perkin Elmer, OptiPlate). In both assay formats, His-TRAF and GST-LMP1, GST-CD40, or GST-RANK proteins were incubated together in 40 µL of PBS (protein concentrations were calculated to the final reaction volume of 60 µL) supplemented with 0.5% BSA (Sigma, #A7030) and 0.1% Tween-20 (AppliChem, #A4974), for 1 h at room temperature (RT). If not indicated otherwise, standard protein concentrations were 300 nM for His-TRAF proteins and 100 nM for GST-LMP1 proteins. Ni-NTA-acceptor (Perkin Elmer, #6760619 C) and GST-acceptor (Perkin Elmer, # 6765300) beads were added each to a final concentration of 1–4 µg per mL in a final reaction volume of 60 µL and incubated for 1 h at RT in the dark. AlphaScreen PPI signals were measured in a CLARIOstar reader (BMG Labtech GmbH).

GST-LMP1 Q381E = test: AlphaScreen PPI, TRAF6 mutants binding to LMP1 Q381E; set-up: species or system Epstein-Barr virus; details: for interaction with LMP1 Q381E (in words): AlphaScreen PPI, four independent experiments; for TRAF6 binding to LMP1 Q-E, AlphaScreen (relative), Supplementary Figure 2 a: mean of wt = 100; for TRAF6 binding to LMP1 Q-E, AlphaScreen (relative), mean: wt = 100, mean of n = 4
Method: as §1, with “GmbH). […]” for “GmbH).”
Supplementary Figure 2. LMP1 Q381E interaction with TRAF6 and additional controls to
experiments. Data are mean values ± SD of four independent experiments. Statistics: one -way
ANOVA. p-values: ****p ≤ 0.0001. Source data in the Source Data file. […]

| Molecule | effect of TRAF6 mutation on binding to RANK (in words) (GST-RANK314-355) | TRAF6 binding to RANK (AlphaScreen), mean (GST-RANK314-355) | TRAF6 binding to RANK (AlphaScreen) (GST-RANK314-355; replicate 1) | TRAF6 binding to RANK (AlphaScreen) (GST-RANK314-355; replicate 2) | TRAF6 binding to RANK (AlphaScreen) (GST-RANK314-355; replicate 3) | TRAF6 binding to RANK (AlphaScreen) (GST-RANK314-355; replicate 4) | interaction with LMP1 Q381E (in words) (GST-LMP1 Q381E) | TRAF6 binding to LMP1 Q-E, AlphaScreen (relative), Supplementary Figure 2 a (GST-LMP1 Q381E; replicate 1) | TRAF6 binding to LMP1 Q-E, AlphaScreen (relative), Supplementary Figure 2 a (GST-LMP1 Q381E; replicate 2) | TRAF6 binding to LMP1 Q-E, AlphaScreen (relative), Supplementary Figure 2 a (GST-LMP1 Q381E; replicate 3) | TRAF6 binding to LMP1 Q-E, AlphaScreen (relative), Supplementary Figure 2 a (GST-LMP1 Q381E; replicate 4) | TRAF6 binding to LMP1 Q-E, AlphaScreen (relative), mean (GST-LMP1 Q381E) |
| --- | --- | --- | --- | --- | --- | --- | --- | --- | --- | --- | --- | --- |
| R392A (protein, UniProt Q9Y4K3 1-522, looked up, variant R392A) TNF receptor-associated …: MSLLNCENSCGSSQSESDCCVAMASSCSAVTKDDSVGGTASTGNLSSSFMEEIQGYDVEFDPPLESKYECPICLMALREAVQTPCGHRFCKACIIKSIRDAGHKCPVDNEILLENQLFPDNFAKREILSLMVKCPNEGCLHKMELRHLEDHQAHCEFALMDCPQCQRPFQKFHINIHILKDCPRRQVSCDNCAASMAFEDKEIHDQNCPLANVICEYCNTILIREQMPNHYDLDCPTAPIPCTFSTFGCHEKMQRNHLARHLQENTQSHMRMLAQAVHSLSVIPDSGYISEVRNFQETIHQLEGRLVRQDHQIRELTAKMETQSMYVSELKRTIRTLEDKVAEIEAQQCNGIYIWKIGNFGMHLKCQEEEKPVVIHSPGFYTGKPGYKLCMALHLQLPTAQRCANYISLFVHTMQGEYDSHLPWPFQGTIRLTILDQSEAPVRQNHEEIMDAKPELLAFQRPTIPRNPKGFGYVTFMHLEALRQRTFIKDDTLLVRCEVSTRFDMGSLRREGFQPRSTDAGV | do not bind to RANK; also recorded: prevented the interaction of TRAF6 with LMP1 and RANK | 0.1 | 0.1 | 0.1 | 0.1 | 0.1 | fail to interact with LMP1 Q381E; also recorded: unable to override the negative effect of R392A mutation | 8.4 | 4.1 | 6.1 | 4.8 | 5.85 |
| F471A (protein, UniProt Q9Y4K3 1-522, looked up, variant F471A) TNF receptor-associated …: MSLLNCENSCGSSQSESDCCVAMASSCSAVTKDDSVGGTASTGNLSSSFMEEIQGYDVEFDPPLESKYECPICLMALREAVQTPCGHRFCKACIIKSIRDAGHKCPVDNEILLENQLFPDNFAKREILSLMVKCPNEGCLHKMELRHLEDHQAHCEFALMDCPQCQRPFQKFHINIHILKDCPRRQVSCDNCAASMAFEDKEIHDQNCPLANVICEYCNTILIREQMPNHYDLDCPTAPIPCTFSTFGCHEKMQRNHLARHLQENTQSHMRMLAQAVHSLSVIPDSGYISEVRNFQETIHQLEGRLVRQDHQIRELTAKMETQSMYVSELKRTIRTLEDKVAEIEAQQCNGIYIWKIGNFGMHLKCQEEEKPVVIHSPGFYTGKPGYKLCMRLHLQLPTAQRCANYISLFVHTMQGEYDSHLPWPFQGTIRLTILDQSEAPVRQNHEEIMDAKPELLAFQRPTIPRNPKGAGYVTFMHLEALRQRTFIKDDTLLVRCEVSTRFDMGSLRREGFQPRSTDAGV | do not interact | 0.725 | 0.2 | 0.4 | 0.2 | 2.1 | fail to interact with LMP1 Q381E; also recorded: unable to override the negative effect | 4.8 | 2.2 | 3.4 | 2.2 | 3.15 |
